Consider 7 molecules from patent US20240279630, “ISOLATED CAS13 PROTEIN AND USE THEREOF” (GUANGZHOU REFORGENE MEDICINE CO., LTD., published 2024).

The subject of data set [1] is CasRx (Cas13d). The experiment in a line: cell_activity.
Data set [2] addresses T1, Cas13m.5 (Bacteroidetes bacterium).
T1 chain: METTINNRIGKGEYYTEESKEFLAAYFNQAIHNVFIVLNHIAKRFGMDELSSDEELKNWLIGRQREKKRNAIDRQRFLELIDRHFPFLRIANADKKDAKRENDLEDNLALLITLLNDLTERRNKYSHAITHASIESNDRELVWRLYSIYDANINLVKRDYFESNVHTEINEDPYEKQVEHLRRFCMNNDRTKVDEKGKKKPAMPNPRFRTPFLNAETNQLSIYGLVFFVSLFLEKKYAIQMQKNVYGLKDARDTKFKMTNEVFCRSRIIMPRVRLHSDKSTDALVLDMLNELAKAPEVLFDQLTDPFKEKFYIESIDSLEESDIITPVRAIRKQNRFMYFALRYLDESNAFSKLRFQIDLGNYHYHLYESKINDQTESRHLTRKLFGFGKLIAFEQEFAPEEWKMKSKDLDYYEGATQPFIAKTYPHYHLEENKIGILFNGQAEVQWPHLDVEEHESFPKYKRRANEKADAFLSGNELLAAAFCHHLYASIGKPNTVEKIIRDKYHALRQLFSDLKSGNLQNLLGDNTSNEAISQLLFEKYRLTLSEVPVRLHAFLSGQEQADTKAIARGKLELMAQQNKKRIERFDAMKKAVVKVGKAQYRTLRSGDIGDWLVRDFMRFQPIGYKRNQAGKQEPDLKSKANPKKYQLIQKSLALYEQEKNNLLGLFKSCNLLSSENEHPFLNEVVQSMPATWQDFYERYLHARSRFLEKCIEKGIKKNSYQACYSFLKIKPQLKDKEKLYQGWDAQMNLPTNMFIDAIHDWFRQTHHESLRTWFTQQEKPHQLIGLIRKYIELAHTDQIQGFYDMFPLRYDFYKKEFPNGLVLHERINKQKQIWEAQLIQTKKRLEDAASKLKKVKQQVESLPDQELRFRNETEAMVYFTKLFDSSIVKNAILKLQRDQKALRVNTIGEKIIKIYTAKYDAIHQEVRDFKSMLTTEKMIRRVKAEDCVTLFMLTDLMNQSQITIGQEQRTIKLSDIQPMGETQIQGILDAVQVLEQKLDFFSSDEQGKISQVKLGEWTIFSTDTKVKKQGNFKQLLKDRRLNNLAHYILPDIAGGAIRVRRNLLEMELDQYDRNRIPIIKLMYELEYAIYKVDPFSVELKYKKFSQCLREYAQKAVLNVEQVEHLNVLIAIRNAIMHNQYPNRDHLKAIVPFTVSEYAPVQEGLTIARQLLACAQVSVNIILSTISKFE
The experiment in a line: cell_activity; 293T, 72 h. Conditions: tags: NLS fusion. On the procedure:
(§1) The 293T cells were transfected with the PTBP1-targeting plasmids of Cas13 m.2, Cas13 m.3, Cas13 m.5, CasRfg.2 and CasRx at 800 ng in a 24-well plate. The negative control group was transfected with the CasRx-BpiI plasmid.
(§2) The transfection method was as follows: [0276] 1) The cells were digested by trypsin (0.25% of Trypsin, EDTA, Thermo, 11058021), counted, and plated into a 24-well plates at 2×10⁵ cells according to 500 uL per well. [0277] 2) For each transfected sample, the complex was prepared according to the following steps: [0278] a. each well of the 24-well plate into which the cells were added, were added with 50 uL of serum-free Opti-MEM I (Thermo, 25200056) reduced serum medium for dilution of the aforementioned plasmid DNA, and mixed gently; [0279] b. it was gently mixed with Lipofectamine 2000 (Thermo, 11668019) before use, and then 1.8 uL of the Lipofectamine 2000 was diluted in each well, i.e., in 50 uL of the Opti-MEM I medium. It was incubated at room temperature for 5 minutes. Note: it was continued to perform step c within 25 minutes; [0280] c. after incubation for 5 minutes, the diluted DNA was combined with the diluted Lipofectamine 2000. They were gently mixed and incubated at room temperature for 20 minutes (the solution might be cloudy visually). Note: the complex was stabilized at room temperature for 6 hours.
(§3) The complex was added into the cells and mixed, and then detected with a QuantStudio™ 5 Real-Time PCR System, 96-well after 72 h.

For data set [3], the target named is T2, Cas13m.2 (metagenome).
T2 chain: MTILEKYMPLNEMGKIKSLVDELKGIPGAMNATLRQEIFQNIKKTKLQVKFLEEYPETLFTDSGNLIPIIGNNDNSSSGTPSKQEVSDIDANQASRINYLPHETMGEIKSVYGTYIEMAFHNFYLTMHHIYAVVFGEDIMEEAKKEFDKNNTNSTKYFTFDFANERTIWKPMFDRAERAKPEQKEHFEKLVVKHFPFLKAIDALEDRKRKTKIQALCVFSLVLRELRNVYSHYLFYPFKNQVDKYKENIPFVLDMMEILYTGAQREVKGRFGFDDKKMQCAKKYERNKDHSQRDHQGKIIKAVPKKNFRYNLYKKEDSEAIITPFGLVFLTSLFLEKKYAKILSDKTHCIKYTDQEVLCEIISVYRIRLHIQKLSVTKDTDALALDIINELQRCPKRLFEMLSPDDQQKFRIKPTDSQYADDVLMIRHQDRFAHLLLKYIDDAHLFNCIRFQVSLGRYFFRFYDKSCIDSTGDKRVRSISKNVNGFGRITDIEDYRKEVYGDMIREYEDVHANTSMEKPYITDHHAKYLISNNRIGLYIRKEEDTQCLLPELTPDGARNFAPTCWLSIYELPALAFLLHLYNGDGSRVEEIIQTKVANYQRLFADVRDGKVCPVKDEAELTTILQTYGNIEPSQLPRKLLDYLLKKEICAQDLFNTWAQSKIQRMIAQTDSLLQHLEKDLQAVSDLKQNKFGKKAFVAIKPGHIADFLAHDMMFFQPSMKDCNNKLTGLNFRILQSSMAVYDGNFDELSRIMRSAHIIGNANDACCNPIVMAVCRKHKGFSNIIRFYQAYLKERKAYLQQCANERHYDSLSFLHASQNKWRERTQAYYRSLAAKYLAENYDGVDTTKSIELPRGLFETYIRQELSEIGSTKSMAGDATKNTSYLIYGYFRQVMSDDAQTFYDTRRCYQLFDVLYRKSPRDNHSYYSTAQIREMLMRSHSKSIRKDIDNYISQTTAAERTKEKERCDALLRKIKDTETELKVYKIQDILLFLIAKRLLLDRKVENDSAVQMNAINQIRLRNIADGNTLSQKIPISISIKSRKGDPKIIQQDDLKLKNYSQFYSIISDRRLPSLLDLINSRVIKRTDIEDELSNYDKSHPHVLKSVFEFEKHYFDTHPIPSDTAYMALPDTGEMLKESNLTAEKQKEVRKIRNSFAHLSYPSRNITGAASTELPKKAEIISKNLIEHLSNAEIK
The experiment in a line: cell_activity; 293T, 72 h. As to conditions: tags: NLS fusion. Here is the method:
as §1, §2, §3

For data set [4], the target named is T3, Cas13m.3 (uncultured Bacteroidetes bacterium).
T3 chain: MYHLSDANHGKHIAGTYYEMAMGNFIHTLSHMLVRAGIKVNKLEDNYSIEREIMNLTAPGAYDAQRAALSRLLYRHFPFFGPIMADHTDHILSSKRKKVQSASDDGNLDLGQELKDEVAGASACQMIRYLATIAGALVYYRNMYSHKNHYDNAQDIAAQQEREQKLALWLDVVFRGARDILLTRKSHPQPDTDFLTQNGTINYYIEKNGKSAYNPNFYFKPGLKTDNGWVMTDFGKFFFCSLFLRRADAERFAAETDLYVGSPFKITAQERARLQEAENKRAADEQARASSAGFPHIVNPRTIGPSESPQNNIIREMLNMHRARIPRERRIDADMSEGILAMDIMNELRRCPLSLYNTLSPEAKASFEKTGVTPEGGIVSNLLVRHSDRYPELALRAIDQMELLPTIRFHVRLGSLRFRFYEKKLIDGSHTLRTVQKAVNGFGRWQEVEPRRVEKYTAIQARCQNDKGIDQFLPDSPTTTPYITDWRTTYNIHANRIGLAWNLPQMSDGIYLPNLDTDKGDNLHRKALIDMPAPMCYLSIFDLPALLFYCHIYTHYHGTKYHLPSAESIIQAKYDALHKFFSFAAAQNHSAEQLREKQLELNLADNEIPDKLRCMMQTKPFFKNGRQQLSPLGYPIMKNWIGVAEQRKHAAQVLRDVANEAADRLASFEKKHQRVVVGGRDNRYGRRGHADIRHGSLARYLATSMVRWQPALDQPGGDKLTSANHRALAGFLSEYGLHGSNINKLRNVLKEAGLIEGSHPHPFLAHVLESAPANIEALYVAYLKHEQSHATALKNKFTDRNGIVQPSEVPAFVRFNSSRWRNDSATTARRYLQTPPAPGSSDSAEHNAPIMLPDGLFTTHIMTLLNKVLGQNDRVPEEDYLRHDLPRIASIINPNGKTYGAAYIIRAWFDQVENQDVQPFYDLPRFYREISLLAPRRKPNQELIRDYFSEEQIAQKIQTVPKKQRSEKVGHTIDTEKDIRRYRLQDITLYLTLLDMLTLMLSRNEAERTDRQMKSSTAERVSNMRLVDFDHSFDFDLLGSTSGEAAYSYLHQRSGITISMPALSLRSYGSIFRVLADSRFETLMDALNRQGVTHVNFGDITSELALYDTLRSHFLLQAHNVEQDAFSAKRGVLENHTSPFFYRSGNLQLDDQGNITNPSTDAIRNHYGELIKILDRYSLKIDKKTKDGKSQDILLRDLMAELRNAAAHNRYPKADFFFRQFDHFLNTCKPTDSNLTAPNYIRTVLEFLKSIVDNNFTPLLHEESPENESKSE
The data set is described as follows: cell_activity; 293T, 72 h. Conditions: tags: NLS fusion. Here is the method: as §1, §2, §3

For data set [5], the target named is T4, CasRfg.2 (Cas13d) (metagenome).
T4 chain: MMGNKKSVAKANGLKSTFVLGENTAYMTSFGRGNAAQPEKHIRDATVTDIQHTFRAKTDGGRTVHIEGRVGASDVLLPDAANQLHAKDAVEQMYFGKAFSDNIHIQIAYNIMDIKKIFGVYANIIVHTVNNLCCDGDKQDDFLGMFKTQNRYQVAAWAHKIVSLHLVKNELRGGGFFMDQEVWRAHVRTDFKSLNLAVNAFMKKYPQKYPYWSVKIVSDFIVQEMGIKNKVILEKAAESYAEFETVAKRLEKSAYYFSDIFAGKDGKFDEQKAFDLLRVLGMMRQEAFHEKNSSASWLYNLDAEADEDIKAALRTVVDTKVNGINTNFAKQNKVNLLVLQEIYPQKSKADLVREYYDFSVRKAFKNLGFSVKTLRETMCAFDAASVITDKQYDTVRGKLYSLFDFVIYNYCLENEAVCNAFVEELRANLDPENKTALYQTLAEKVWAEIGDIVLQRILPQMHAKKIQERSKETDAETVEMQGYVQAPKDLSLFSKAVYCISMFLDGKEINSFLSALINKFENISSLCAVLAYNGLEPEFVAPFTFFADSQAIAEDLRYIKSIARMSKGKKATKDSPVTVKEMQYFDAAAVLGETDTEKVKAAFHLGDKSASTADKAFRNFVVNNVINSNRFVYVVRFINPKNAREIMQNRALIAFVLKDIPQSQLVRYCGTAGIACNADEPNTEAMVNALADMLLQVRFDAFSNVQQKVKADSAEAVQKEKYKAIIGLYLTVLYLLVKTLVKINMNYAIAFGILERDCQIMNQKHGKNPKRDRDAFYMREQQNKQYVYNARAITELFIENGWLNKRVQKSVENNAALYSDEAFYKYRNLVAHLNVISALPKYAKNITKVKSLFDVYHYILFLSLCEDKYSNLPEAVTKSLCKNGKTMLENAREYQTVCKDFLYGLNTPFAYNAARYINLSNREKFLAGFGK
The data set is described as follows: cell_activity; 293T, 72 h. Conditions: tags: NLS fusion. Here is the method: as §1, §2, §3

“GAAGACAAAGAGGGUCGUGG / CCACGACCCUCUUUGUCUUC” gave an activity (relative mRNA level) in data set [1] (293T-AQp1, 72 h) of 0.05.
As to “GUGGUUGGAGAACUGGAUGUAGAUGGGCUG / CAGCCCAUCUACAUCCAGUUCUCCAACCAC [PTBP1 gRNA CasRx (guide part only) ; PTBP1 mRNA site]”, in data set [1] (293T, 72 h, 0.59 in Table 10), the activity (relative mRNA level) stood at 0.6.
“AGGGCAGAACCGAUGCUGAUGAAGAC / GUCUUCAUCAGCAUCGGUUCUGCCCU” had an activity (relative mRNA level) in data set [1] (control 1.00) of 0.03.

B1: PTBP1 gRNA Cas13m.5 ; PTBP1 mRNA site (ssRNA ; ssRNA)
RNA 1: GUGGUUGGAGAACUGGAUGUAGAUGGGCUGGUUGUGUGUGCCUUUCAAAUUGAAGGCGUUCCCAAC
RNA 2: CAGCCCAUCUACAUCCAGUUCUCCAACCAC
B1: in data set [2], the activity came to 0.7 relative mRNA level.

B2: PTBP1 gRNA Cas13m.2 ; PTBP1 mRNA site (ssRNA ; ssRNA)
RNA 1: GUGGUUGGAGAACUGGAUGUAGAUGGGCUGGUUGUAGAUGACCUCGUUUUGGAGGGGAAACACAAC
RNA 2: CAGCCCAUCUACAUCCAGUUCUCCAACCAC
As to B2, in data set [3], the activity is 0.49 relative mRNA level.

B3: PTBP1 gRNA Cas13m.3 ; PTBP1 mRNA site (ssRNA ; ssRNA)
RNA 1: GUGGUUGGAGAACUGGAUGUAGAUGGGCUGGUUGUAGAAGCCGUUCAUUCGGGACGGUAUGACAAC
RNA 2: CAGCCCAUCUACAUCCAGUUCUCCAACCAC
The molecule B3 returned an activity in data set [4] of 0.46 relative mRNA level.

B4: PTBP1 gRNA CasRfg.2 ; PTBP1 mRNA site (ssRNA ; ssRNA)
RNA 1: GGUUUUACACCCGUGUAAAACUACACAGUUCUAAAACGUGGUUGGAGAACUGGAUGUAGAUGGGCUG
RNA 2: CAGCCCAUCUACAUCCAGUUCUCCAACCAC
B4 came in with an activity in data set [5] of 0.78 relative mRNA level.
